Assays:
[1] = biological target: T1, FGFR4 (solid phase receptor-binding assay) (Homo sapiens (Human)) (UniProt P22455); test: solid phase receptor-binding assay; LD1 titrated, inhibition of FGF1 binding to FGFR4
T1 sequence: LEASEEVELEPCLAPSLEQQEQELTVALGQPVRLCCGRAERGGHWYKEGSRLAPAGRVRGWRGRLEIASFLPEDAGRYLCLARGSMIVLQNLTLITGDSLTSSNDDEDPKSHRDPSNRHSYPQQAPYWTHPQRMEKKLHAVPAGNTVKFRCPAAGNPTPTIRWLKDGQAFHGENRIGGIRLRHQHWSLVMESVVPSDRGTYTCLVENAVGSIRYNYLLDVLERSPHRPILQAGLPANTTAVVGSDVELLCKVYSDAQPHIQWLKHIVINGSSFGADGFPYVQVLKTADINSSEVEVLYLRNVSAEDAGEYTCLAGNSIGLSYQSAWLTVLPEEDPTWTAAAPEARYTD

[2] = biological target: human FGFR4-FGFR1 chimeric construct (hFGFR4/R1) on BaF3 cells (human) (UniProt P11362); test: cell-based or functional assay
[3] = biological target: T2, human FGFR4 (soluble, Part B: SPR and FGFR4 ELISA) (human) (UniProt P22455); test: SPR (BIAcore-2000), antibody immobilized, human FGFR4 injected
T2 sequence: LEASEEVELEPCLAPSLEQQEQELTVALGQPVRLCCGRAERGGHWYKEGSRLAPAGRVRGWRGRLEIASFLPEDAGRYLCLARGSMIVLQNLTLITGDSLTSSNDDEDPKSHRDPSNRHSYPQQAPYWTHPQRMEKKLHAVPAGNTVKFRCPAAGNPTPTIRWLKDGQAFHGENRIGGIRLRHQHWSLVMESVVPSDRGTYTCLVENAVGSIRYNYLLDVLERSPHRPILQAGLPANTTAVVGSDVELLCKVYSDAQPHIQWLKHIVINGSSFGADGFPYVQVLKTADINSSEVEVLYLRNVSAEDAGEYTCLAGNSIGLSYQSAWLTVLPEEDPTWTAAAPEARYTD

[4] = biological target: T1, FGFR4 (solid phase receptor-binding assay) (Homo sapiens (Human)); test: solid phase receptor-binding assay; LD1 titrated, inhibition of FGF19 binding to FGFR4

B1: chimeric LD1 (chLD1) (antibody, from a related filing, human IgG1, V domains shown)
VH: EVQLQQPGAVLVRPGTSVKLSCKASGYTFTNHWMNWVKQRPGQGLEWIGMIHPSDSETTLDQKFKDKATLTVDKSSSTAYMQLNRPTSEDSAVYYCTRGDISLFDYWGQGTTVTVSS
VL: DIQMTQTTSSLSASLGDRVTITCRTSQDISNFLNWYQQKPDGTFKILISYTSRLHSGVPSRFSGSGSGTDYSLTISTLEQEDFATYFCQQGNALPYTFGGGTKLEIE
IC50 [1]: 93 pM | inhibition of FGF1-stimulated proliferation of BaF3/FGFR4/R1 cells (5 nM FGF1), IC50 [2]: 17400 pM | Kd [3]: 450 pM | koff [3]: 0.000173 s⁻¹ | IC50 [4]: 102 pM

Reference: patent US20160237157A1
